Experimental data published in publication PMC7105897.

Legend:
[1] = molecular target: N2 NA of the 1957 H2N2 pandemic isolate A/Japan/305/1957 (influenza A virus A/Japan/305/1957 (H2N2)); experiment: crystal structure
[2] = molecular target: N2 NA of the seasonal influenza virus strain A/Hong Kong/4801/2014 (H3N2) (influenza A virus A/Hong Kong/4801/2014 (H3N2))
[3] = molecular target: N9 NA from the H7N9 epidemic isolate A/Hunan/02650/2016 (influenza A virus A/Hunan/02650/2016 (H7N9)); experiment: crystal structure

Substance “N2 NA of the 1957 H2N2 pandemic isolate A/Japan/305/1957 (enzyme)” has a stoichiometry N [1] of 4.
For antigen-binding fragment (Fab) of 1G01, the IC50 of inhibition of NA activity of H3N2 A/Hong Kong/4801/2014 in ELLA (Fab) [2] was 7.62 nM.
Substance “N9 NA from the H7N9 epidemic isolate A/Hunan/02650/2016 (enzyme)” has a stoichiometry N [3] of 4.
